# Measured values reported in PMC4066849 (Structure (London, England : 1993), 2014).
# Target: the molecule itself
# Assay: crystal structure
row,Protein,stoichiometry N
1,"MiD51Δ1–133 (domain or fragment, mouse, UniProt Q8BGV8 134-463, looked up) SLQEKLLSYYRNRAAIPAGEQARAKQAAVDICAELRSFLRAKLPDMPLRDMYLSGSLYDDLQVVTADHIQLIVPLVLEQNLWSCIPGEDTIMNVPGFFLVRRENPEYFPRGSSYWDRCVVGGYLSPKTVADTFEKVVAGSINWPAIGSLLDYVIRPAPPPEALTLEVQYEKDKHLVIDFLPSVTLGDTVLVARPHRLAQYDNLWRLSLRPAETARLRALDQADSGCRSLCLKILKAICKSTPALGHLTASQLTNVILHLAQEEADWSPDMLADRFLQALRGLISYLEAGVLPSALNPKVNLFAELTPQEIDELGYTLYCSLSEPEVLLQT",2
2,"MiD51 H201A mutant (MiD51Δ1–133 H201A) (domain or fragment, mouse, UniProt Q8BGV8 134-463, looked up) SLQEKLLSYYRNRAAIPAGEQARAKQAAVDICAELRSFLRAKLPDMPLRDMYLSGSLYDDLQVVTADAIQLIVPLVLEQNLWSCIPGEDTIMNVPGFFLVRRENPEYFPRGSSYWDRCVVGGYLSPKTVADTFEKVVAGSINWPAIGSLLDYVIRPAPPPEALTLEVQYEKDKHLVIDFLPSVTLGDTVLVARPHRLAQYDNLWRLSLRPAETARLRALDQADSGCRSLCLKILKAICKSTPALGHLTASQLTNVILHLAQEEADWSPDMLADRFLQALRGLISYLEAGVLPSALNPKVNLFAELTPQEIDELGYTLYCSLSEPEVLLQT",2
